B1: TPR t1 (parent)
chain: GACCAAUCUGCCCUCAGAGCUCGAGAACAUCUUCGGAUGCAGAGGAGGCAGGCUUCGGUGGCGCGAUAGCGCCAACGUCCUCAACCUCCAAUGCAUCCCACCACAUGAUGAUGCCUGAAGAGCCUUGGUUUUUUG

Variants of: B1
Experiment: polymerase ribozyme fitness, log enrichment relative to wild type (log ratio); higher = more active; in vitro selection for triplet polymerase activity
How it was run: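 PCR was used to build mutant libraries for each subunit of a heterodimeric triplet polymerase ribozyme, which were then transcribed. A single in vitro selection round, in triplicate, used a frozen incubation at −7 °C and recovered extended constructs by gel excision, streptavidin beads and RT-PCR. Fitness is the logarithm of genotype enrichment relative to wild-type enrichment, averaged over replicates with inverse-variance weights. The logarithm is base 2, and after Illumina sequencing only genotypes with ≥10 input reads and ≥1 read per output were kept.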

Variant | polymerase ribozyme fitness (log ratio)
GACCAAUCUGCCCUCAGUGCUCGAGAACAUCUUCGGAUGCAGAGGAGGCAGGCUUCGGUGGCGCGAUAGCGCCAACGUCCUCAACCUCCAAUGCAUCCCACCACAUGAUGAUUUCUGAAGAGCAUUGGUCUUUUG [A18U G113U C114U C124A U130C] | -2.93
GACCAAUCUGCCCUCAGAACUCGAGAACAUCUUCGGAUGCAGAGGAGGCAGGCUUGGGUGGCGCGAUAGCGCCAACGUCCUCAACCUCCAAUGCAUCCCACCACAAGAUGAUCCCUGAAGAGCCUUGGUUUUUUG [G19A C56G U106A G113C] | -1.09
GACCAAUCUGCCCUCAGUGCUCGAGAACAUCUUCGGAUGCACAGGAGGCUGGCUUCGGUGGCGCGAUAGCGCCAACGUCCUCAACCUCCAAUGCAUCCCACCACAUGAUGAUGCCUGAAGAGCCUUGGUUUUUUG [A18U G42C A50U] | -3.92
GACCAAUCUGCCCUCAGUGCUCGAGAACAACUUCGGGUGCAGAGGAGGCAGGCUUCGGUGGCGCGAUAGCGCCAACGUCCUCAACCUCCAAUGCAUCCCACCACAUGUUGAUGCCUGAAGAGCCUUGGUUUUUUG [A18U U30A A37G A108U] | -3.64
GACCAAUCUGCCCUCAGUGCUCGAGAACAUCUUCGGAUGCAGAGGAGGCAGGCUUCGGUGGCGCGAUAGCGCCAACGUCCUCAACCUCCAAUGCAUCCCACCACAUGAUGAUGCCUGAAAAGCCUUGGUUUUUUG [A18U G120A] | -1.14
GACCAAUCUGCCCUCAGUGCUCGAGAACAUCUUCGGAUGCAGAGGAGGCAGGCUUCGGUGGCGCGAUAGCGCCAACGUCCUCAACCUCCAAUGCAUCCCACCACAUGAUGAUGUCUGAAGAGCCUUGGUUUUUUG [A18U C114U] | -3.74
GACCAAUCUGCCCUCAGUGCUCGAGAACAUCUUCGGAUGCAGAGGAGGCAGGCUUCGGUUGCGCGAUAGCGCCAACGUCCUCAACCUCCAAUGCAUCCCACCACAUGAUGAUGCCUGAAGAGCCUUGGUUUUUUG [A18U G60U] | -1.19
GACCAAUCUGCCCUCAGUGCUCGAGAACAUCUUCGGAUGCAUAGGAGGCAGGCUUCGGUGGCGCGAUAACGCCAACGUCCUCAACCUCCAAUGCAUCCCUCCACAUGAUGAUGACUGAAGAGCCUUGUUUUUUUG [A18U G42U G69A A100U C114A G128U] | -7.14
GACCAAUCUGCCCUCAGUGCUCGAGAACAUCUUCGGAUUCAGAGGAGGCAGGCUUCGGUGGCGCGAUAGCGCUAACGUCCUCAAGCUCCAAUGCAUCCCACCACAUGAUGAUGCCUGAAGAGCCUUGGUUUUUUG [A18U G39U C73U C85G] | -4.26
GACCAAUCUGCCCUCAGUGCUCGAGAACAUCUUCGGAUGCAGAGGAGGCAGGCUUCGGUGGCGCGAUACCGCCAACGUCCUCAAACUCGAAUGCAUCCCACCACAUGAUGAUGCCUGAAGAGCCUUGGUUUUUUG [A18U G69C C85A C89G] | -6.03
GACCAAUCUGCCCUCAGUGCUCGAGAACAUCUUCGGAUACAGAGGAGGCAGGCAUCGGUGGCGCGAUAGAGCCAACGUCCUCAACCUCCAAUGCAUCCCACCACAUGAUGAUGCCUGAAGAGCUUUAGUUUUUUG [A18U G39A U54A C70A C124U G127A] | -4.66
GACCAAUCUGCCCUCAGUGCUCGAGAACAUCUUCGGAUGCAGAGGAGGCAGGCUUCGGUGGCGCGAUAUCGCCAACGUCCUCAACCUCCAAUGCAUCCCACCACAUGAUGAUGCCUGAAGAGCCUUGGUUUUUUG [A18U G69U] | -0.112
GACCAAUCUGCCCUCAGAACUCGAGAACAUCUUCGGAUGCAGAGGAGGCAGGCUUCGGUGGAGCGAUAGCGCCAACGUCCUAAACCUCCAAUUCAUCCCACCACAUGAUGAAGCCUGAAGAGCCUUGGUUUUUUG [G19A C62A C82A G93U U112A] | -2.13
GACCAAUCUGCCCUCAGUGCUCGAGAACAUCUUCGGAUGCAGAGGAGGCAGGCUUCGGUGGCGCGAUAGCGCCAACGUCCUCAACCUCCAAUGCAUCCCACCACAUGAUGAUGCCUCAAGAGCCUUGGUUUUUUG [A18U G117C] | -4.12
GACCAAUCUGCCCUCAGUGCUCGAGAACAUCUUCGGAUGCAGAGGAGCAAGGCUUCGGUGGCGCGAUAGCGCCAACGUCCUCAACCUCCAAUGCAUCCCACCACAUGAUGAUGCCUGAAGAGCCUUGGUUUUUUG [A18U G48C C49A] | -3.25
GACCAAUCUGCCCUCAGUGCUCGAGAACAUCUUCGGAUGCAGAGGAGGCAGGCUGCGGUGGCGCGAUAGCGCCAACGUCCUGAACCUCCAAUGCAUCCCACCACAUGAUGAUGCCUGAAAAGCCUUGGUUUUUUG [A18U U55G C82G G120A] | -3.38
GACCAAUCUGCCCUCAGUGCCCGAGAACAUCUUCGAAUGCAGAGGAGGCAGGCUUCGGUGGCGCGAUAGCGCCAACGUCCUCAACCUCCAAUGCAUCCCACCACAUGAUGAUGUCUGAAGAGCCUUGGUUUUUUG [A18U U21C G36A C114U] | -3.69
GACCAAUCUGCCCUCAGUGCUCGAGAACAUCUUCGGAUGCAGAGGAGGCAGGCUUCGGUGGCACGAUAGCGCCAACGUCCUCAACCUCCAAUGCAUCCCACCACAUGAUUAUGCCUGAAGAGCCUUGGUUUUUUG [A18U G63A G110U] | -6.24
GACCAAUCUGCCCUCAGUGCUCGAGAACAUCUUCGGAUGCAGAGGAGGCAGGCUUCUGUGGCGCGAUAGCGCCAACGUCCUCAACCUCCAAUGCAUCCCCCCACAUGAUGAUGCCUGAACAGCCUUGGUUUUUUG [A18U G57U A100C G120C] | -5.42
GACCAAUCUGCCCUCAGAACUCGAGAACAUCUUCGGAUGCAGAGGAGGCAGGCUUCGGUGGAGCGAUAGCGCCAACGACCACAACCUCCAAUGCAUCCCAGCACAUGAUGAUUCCUGAAGAGCCUUGGUAUUUUG [G19A C62A U78A U81A C101G G113U U130A] | -6.38
GACCAAUCUGCCCUCAGAACUCGAGAACAUCUUCGGAUGCAGAGGAGGCAGGAUUCGGUGGCGCGAUAGCGCCAACGUCCUCAACCUCCAAUGCAUCCCAUCACAUGAUGAUGCCUGAAGAGCCUUGGUUUUUUG [G19A C53A C101U] | -2.73

Variant | polymerase ribozyme fitness (log ratio)
GACCAAUCUGCCCUCAGUGCUCGAGAACAUCUUCGUAUGCAGAGGAGGCAGGCUUCGGCGGCGCGAUAGCGCCAACGUCCUCAACCUCCAAUGCAUGCCACCACAUGAUGAUGCCUGAAGAGCCUUGGUUUUUUG [A18U G36U U59C C97G] | -4.79
GACCAAUCUGCCCUCAGAACUCGAGAACCUCUUCGGAUGCAGAGGAGGCAGGCUUCGGUGGCGCGAUAGCGCCAACGUCCUCAACCUCCAAUGCAUCCCACCACAUGAAGAUGCCUGAACAGCCUUGGUUUUUUG [G19A A29C U109A G120C] | -5.43
GACCAAUCUGCCCUCAGUGCUCGAGAACAUCUUCGGAUGCAGAGGAGGCAGGCUUCGGUGGCGCGAUAGCGCCAACGUCCACAACCUCCAAUGCAUCCCACCACAUGAUGAUGACUGAAGAGCCUUGGUUUUUUG [A18U U81A C114A] | -3.7
GACCAAUCUGCCCUCAGUGCUCGAGAACAUCUUCGGAUGCAGAGCAGGCAGGCUUCCGUGGCGCGAUAUCGCCAACGUCCUCAACCUCCAAUGCAUCCCACCACAUGAUGAUGCCUGAAGAGCCUUGGUUUUUUG [A18U G45C G57C G69U] | -1.15
GACCAAUCUGCCCUCAGUGCUCGAGAACAUCUUCGGAUGCAGAGGAGGCAGGCUUCGGUGGCGCGAUAGCGCCAACGUCCUCAACCUCCAAGGCAUCCCACCACAUGAUGAUGCCUGAAGAGCCUUGGUUUUUUG [A18U U92G] | -3.54
GACCAAUCUGCCCUCAGUGCUCGAGAACAUCUUCGGAUGCAGAGGAGGCAGGCUUCGGUGGCGCGAUAGCACCAACGUCCUCAACCUCCAAUGCAUCCCACCACAUGAUGAUGCCUGAAGAGCCUUGGUUUUUUG [A18U G71A] | -2.85
GACCAAUCUGCCCUCAGUGCUCGAGAACAUCUUCGGAUGCAGAGGAGGCAGGCUUCGGUGGCGCGAUAGCGCCAACGUCCUCAACCGCCAAUGCAUCCCACCACAUGAUGAUGCCUGAAAAGCCUUGGUUUUUUG [A18U U87G G120A] | -1.48
GACCAAUCUGCCCUCAGAACUCGAGAACAUCUUCGGAUGCAGAGGAGGCAGGCUUCGGUGGCGCGUUAGCGCCAACGUCCUCAACCUCCAAUGCAUCCCAUCACAUGAUGAUGCCUGAAGAGCCUUGGUUUUUUG [G19A A66U C101U] | -4.61
GACCAAUCUGCCCUCAGUGCUCGAGAACAUCUUCGAAUGCAGAGGAGGCGGGCUUCGGUGGCGCGAUAGCGCCAACGUCCUCAACCUCCAAUGCAUCCCACCACAUGAUGAUGCCUGAAGAGCCUUGGUUUUUUG [A18U G36A A50G] | -3.46
GACCAAUCUGCCCUCAGUGCUCGAGAACAUCUUCGGAUUCAGAGGAGGCAGGCUUCGGUGUCGCGAUAGCGCCAACGUCCUCAACCUCCAAUGCAUUCCACCACAUGAUGAUGCCUGAAGAGCCUUGGUAUUUUG [A18U G39U G61U C97U U130A] | -4.49
GACCAAUCUGCCCUCAGAACUCGAGAACAUCUUCGGAUGUAGAGCAGGCAGGCUUCGGUGCCGCGAUAGCGCCAACGUCCUCAACCUCCAAUGCAUCCCACCACAUGAUGAUGCCUGAAGAGCAUUGGUUUUUUG [G19A C40U G45C G61C C124A] | -3.57
GACCAAUCUGCCCUCAGUGCUCGAGAACAUCUUCGGAUGCAGAGGAGGCAGGCUUCGGUGCCGCGAUAGCGCCAACGUCCUCAACCUCCAAUGCAUCCCACCACAUGAUGAUGCCUGAAAAGCCUUGGUUUUUUG [A18U G61C G120A] | -4.67
GACCAAUCUGCCCUCAGAACUCGAGAACAUCUUCGGAUGCAGAGGAGGCAGGCUUCGGUGGCGCGAUAGCGUCAACGUCCUCAACCUCCAAUGCAUCCCACCACAUGAUGAUGCCUGAAGAGCCUUGGUUUUUUG [G19A C72U] | -3.79
GACCAAUCUGCCCUCAGAACUCGAGAACAUCUUCGGAUGCAGAGGAGGCAGGCUUCGGUGGCGCGAUAGCGUCAUCGUCCUCAACCUCCAAUGCAUCCCACCACAUGAUGAUGACUGAAGAGCCUUGGUUUUUUG [G19A C72U A75U C114A] | -2.05
GACCAAUCUGCCCUCAGUGCUCGAGAACAUCUUCGGAUGCAGAAGAGGCAGGCAUCGGUGGCGCGAUAGCGCCAACGUCCUCAACUUCCAAUGCAUCCCACCACAAGAUGAUGCCUGAAGAGCCUUGGUUUUUUG [A18U G44A U54A C86U U106A] | -5.25
GACCAAUCUGCCCUCAGUGCUCGAGAACAUCUUCGGAUGCAUAGGAGGCAGGCUUCGGUGGCGCGAUAGCGCCAACGUCCUCAACCUCCAAUGCAUCCCACCACAUGAUGAUGCCUGAAGAGCCUUGGUUUUUUG [A18U G42U] | -2.23
GACCAAUCUGCCCUCAGUGCUCGAGAACAUCUUCGGAUGCAGAGGAGGCAGGCUUCGGGAGCGCGAUAGCGCCAACGUCCUCAACCUCCAAUGCAUCCCACCACAUGAUGAUGCCUGAAGAGCCUUGGUUUUUUG [A18U U59G G60A] | -4.56
GACCAAUCUGCCCUCAGAACUCGAGAACAUCUUCGGAUGCAGAGGAGGCAGGUUUCGGUGGCGCGAUAGCGCCAACGUCCUCAACCUCCAAUGCAUCCCACCACAUGAUGAUGCCUGAAGAGCCUUGGUUUUUUG [G19A C53U] | -2.82
GACCAAUCUGCCCUCAGUGCUCGAGAACAUCUUCGGAUGCAGAGGAGGCAGGCUUCGGUGGCGCGAUAGCGCCAACGGCCUCAACCUCCAAUGCAGCCCACCACAUGAUGAUGCCUGAAGAGCCUUGGUUUUUUG [A18U U78G U96G] | -4.41
GACCAAUCUGCCCUCAGAACUCGAGAACAUCUUCGGAUGCAGAGGAGGCAGGCUUUGGUGGCGCGAUAGCGCCAACGUCCUCAACCUCCAAUGCAUCCCACCACAUGAUGAUGCAUGAAGAGCCUUGGUUUUUUG [G19A C56U C115A] | -3.68
GACCAAUCUGCCCUCAGAACUCGAGAACAUCUUCGGAUGCAGAGGAGGUAGGCUUCGGUGGCGCGAUAGCGCCAACGUCCUCAACCUCCAAUGCAUCCCACCACAUGAUGAUUCCUGAAGAGCCUUGGUUUUUUG [G19A C49U G113U] | -2.65

Source: the RNAGym collection of RNA variant scans (doi:10.1073/pnas.2313332121)
